This is an account of results in patent publication US20180171029A1 (REGENTS OF THE UNIVERSITY OF MINNESOTA, published 2018).

In assay [1] the target is T1, HA-tagged human APOBEC3A (A3A-HA) (human, UniProt P31941 1-199).
T1 construct: Expressed by transient transfection in 293T cells; lysate resolved by SDS-PAGE (denatured) for the immunoblot; not shown: HA tag
The assay is described as follows: immunoblot of 293T lysates with A3-HA proteins (FIG. 3), hybridoma supernatant. From the text: (§1) Cell lysates from 293T cells transiently transfected with each HA-tagged APOBEC3 protein (A3A-HA, A3B-HA, A3C-HA, A3D-HA, A3F-HA, A3G-HA, A3H-HA) or the expression vector alone were resolved by 12% SDS-PAGE and transferred to PVDF membrane. […] Membranes were further probed with the appropriate secondary antibodies including anti-rabbit IgG IR800CW (Odyssey 926-32211, LI-COR Biosciences, Lincoln, Nebr.) 1/20,000 or anti-mouse IgG IR800CW (Odyssey 827-08364, LI-COR Biosciences, Lincoln, Nebr.) 1/20,000 in 50% Blok (WBAVDP001, Millipore, Darmstadt, Germany) in PBS-T, (PBS, 0.1% Tween-20) and images were generated using LI-COR imaging (LI-COR Biosciences, Lincoln, Nebr.).

For assay [2], the target named is T2, HA-tagged human APOBEC3B (A3B-HA) (human, UniProt Q9UH17 1-382).
T2 construct: Expressed by transient transfection in 293T cells; lysate resolved by SDS-PAGE (denatured) for the immunoblot; not shown: HA tag
As to the kind of experiment: hybridoma screening (ELISA-positive clones, then immunoblot of A3-HA lysates and immunofluorescence).

In assay [3] the target is T2, HA-tagged human APOBEC3B (A3B-HA). The assay is described as follows: immunoblot of 293T lysates with A3-HA proteins (FIG. 3), hybridoma supernatant.
Source text: as §1

Assay [4] has as its target T3, endogenous human APOBEC3B (A3B) of cancer cell lines (human, UniProt Q9UH17 1-382).
T3 construct: whole, on cells; Untagged endogenous, intracellular protein: detected in fixed and permeabilised cells (immunofluorescence, flow cytometry) and in cell lysates (immunoblot); also called endogenous A3B
The assay is described as follows: intracellular flow cytometry, OVCAR5 and MDA-MB-468 cells with control or A3B shRNA. On the procedure:
OVCAR5 (Monks et al., 1991, J. Natl. Cancer Inst. 83:757-766) and MDA-MB-468 (ATCC HTB-132, ATCC, Manassas, Va.) cells were transduced with lentiviruses encoding either a control or A3B-specific shRNA. Following drug selection (puromycin), cells were fixed in 1% paraformaldehyde and permeabilized in cold methanol. […] After a single PBS wash to remove unbound antibody, cells were analyzed on a flow cytometer.

T1 sequence (P31941 whole entry): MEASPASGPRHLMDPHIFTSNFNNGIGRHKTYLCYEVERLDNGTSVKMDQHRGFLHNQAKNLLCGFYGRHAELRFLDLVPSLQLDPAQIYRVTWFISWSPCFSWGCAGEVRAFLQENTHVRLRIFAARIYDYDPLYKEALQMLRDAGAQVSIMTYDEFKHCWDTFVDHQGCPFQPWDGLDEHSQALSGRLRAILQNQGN
T2 sequence (Q9UH17 whole entry): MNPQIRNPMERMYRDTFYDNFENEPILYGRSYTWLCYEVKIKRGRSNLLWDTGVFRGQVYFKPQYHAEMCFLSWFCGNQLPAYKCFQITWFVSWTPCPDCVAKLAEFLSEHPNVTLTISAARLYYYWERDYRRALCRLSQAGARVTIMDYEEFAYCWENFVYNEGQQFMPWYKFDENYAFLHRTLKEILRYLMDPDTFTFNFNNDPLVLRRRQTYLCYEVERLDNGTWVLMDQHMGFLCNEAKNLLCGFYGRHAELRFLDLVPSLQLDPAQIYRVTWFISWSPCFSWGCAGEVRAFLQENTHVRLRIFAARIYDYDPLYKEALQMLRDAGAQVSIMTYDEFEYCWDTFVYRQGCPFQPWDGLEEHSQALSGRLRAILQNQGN
T3 sequence (Q9UH17 whole entry): as above

B1: monoclonal antibody produced by hybridoma cell line 5210-08-15 (antibody, V domains shown)
VH: QEQLEESGGGLVKPGGTLTLTCKASGFSFSDGYWMCWIRQAPGKGLEWIGCIYDASGGAYFPSWAKGRFTISKTSSTTVTLEMTSLTDADTAIYFCVKTDYGSSKLWGPGTLVTVSS
VL: AVVLTQTASPVSAPVGGTVTINCQASQNIYSNLAWYQQKPGQPPKLLIYGASTLASGVSSRFKGSRSGTEFTLTISDLECADAATYYCQSYVYSSSTADTFGGGTKVVVEV
notes: Rabbit monoclonal antibody, tested as hybridoma culture supernatant; The Ig chain entries come from cDNA and may include a leader peptide; no cleavage site stated
Consider B1, for which the binding result in assay [1] and in assay [2] was “binds” in each case.

B2: monoclonal antibody produced by hybridoma cell line 5210-87-13 (antibody, V domains shown)
VH: QSVKESEGGLFKPTDTLTLTCTVSGFSLSSYRMHWVRQAPGNGLEWIGSISSGGNAAYARWANTRSTITRNTNLNTVTLKMTSLTAADTATYFCGSNVIWGPGTLVTVSS
VL: DPVLTQTPSSVSAAVGGTVTISCQSSESVFKKNWLAWYHQKPGQSPKRLIYGASTLESGAPSRFRGSGSGTQFTLTISDLECGDAATYYCAGAFDGNIYPFGGGTEVVVKG
notes: Rabbit monoclonal antibody; hybridoma supernatant in the screens, mAb preparation in the work on endogenous A3B; The Ig chain entries come from cDNA and may include a leader peptide; no cleavage site stated
As for B2, the binding result in assay [1], in assay [3] and in assay [4] was “binds” in each case.
